Laboratory results reported in patent US20230265151A1, “GIP/GLP1 CO-AGONIST COMPOUNDS” (priority 2020, published 2023).
Residue numbers refer to the chain shown, from its start. *1 amine or outer side, *2 acyl side, *3 side chain or, on linkers, in order; H or OH if unused. Where no end group is shown, it is not given here. Side-chain parts run from the residue outwards. [ ]: non-standard residue; d: D form. The star is where a group is joined. αMePhe(2-F) = C[C@](N)(Cc1ccccc1F)C(=O)O; γGlu = O=C(O)[C@H](CCC(=O)[*:2])N[*:1]; C14 diacid = O=C(O)CCCCCCCCCCCCC(=O)*; αMeY = C[C@](N)(Cc1ccc(O)cc1)C(=O)O; αMeL = CC(C)C[C@](C)(N)C(=O)O; Nle = CCCC[C@H](N)C(=O)O; Orn = NCCC[C@H](N)C(=O)O; AEEA = NCCOCCOCC(=O)O; Aib = CC(C)(N)C(=O)O

T1: human GIP receptor (human, UniProt P48546 22-466)
T1 construct: whole, on cells; also called hGIPR; human glucose-dependent insulinotropic polypeptide receptor
T1 sequence (looked up): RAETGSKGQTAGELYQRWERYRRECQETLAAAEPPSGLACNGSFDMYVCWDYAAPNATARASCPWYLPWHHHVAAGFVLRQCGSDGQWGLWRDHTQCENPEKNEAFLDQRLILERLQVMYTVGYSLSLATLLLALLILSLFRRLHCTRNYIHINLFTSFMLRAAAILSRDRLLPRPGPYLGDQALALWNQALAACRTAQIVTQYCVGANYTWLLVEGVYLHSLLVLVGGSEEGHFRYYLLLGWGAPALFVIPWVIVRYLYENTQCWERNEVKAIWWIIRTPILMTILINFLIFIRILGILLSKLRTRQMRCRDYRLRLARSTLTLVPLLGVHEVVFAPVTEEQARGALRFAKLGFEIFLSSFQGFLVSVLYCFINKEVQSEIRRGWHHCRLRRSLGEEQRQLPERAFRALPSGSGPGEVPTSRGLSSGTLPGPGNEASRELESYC

B1: Y-Aib-EGT-αMeF(2F)-TSD-4Pal-Aib-I-αMeL-LD-Orn-QAQ-Aib-Orn-FIK((2-[2-(2-Amino-ethoxy)-ethoxy]-acetyl)-(γ-Glu)-(2-[2-(2-Amino-ethoxy)-ethoxy]-acetyl)-(γ-Glu)-(10- … (peptide)
peptide: YXEGTXTSDXXIXLDXQAQXXFIKXLIKGGPSSGAPPPS
modifications: Aib2, αMeF(2F)6, 4Pal10, Aib11, αMeL13, Orn16, Aib20, Orn21, K24(Z1), αMeY25, K28(Z1), C-term NH2; Z1=AEEA-(γ-Glu)-AEEA-(γ-Glu)-(10-(4-carboxyphenoxy)decanoyl)
B2: Y-Aib-EGT-αMeF(2F)-TSD-4Pal-Aib-I-αMeL-LD-Orn-QAQ-Aib-Orn-FIK((γ-Glu)-(2-[2-(2-Amino-ethoxy)-ethoxy]-acetyl)2-(γ-Glu)-(10-(4-carboxyphenoxy)decanoyl))-αMeY-LIK( … (peptide)
peptide: B1 peptide
modifications: Aib2, αMeF(2F)6, 4Pal10, Aib11, αMeL13, Orn16, Aib20, Orn21, K24(Z1), αMeY25, K28(Z1), C-term NH2; Z1=(γ-Glu)-AEEA2-(γ-Glu)-(10-(4-carboxyphenoxy)decanoyl)
B3: Y-Aib-EGT-αMeF(2F)-TSDY-Aib-I-αMeL-LD-Orn-QAQ-Aib-Orn-FIK((2-[2-(2-Amino-ethoxy)-ethoxy]-acetyl)2-(γ-Glu)--C10_4CP)-αMeY-LIK((2-[2-(2-Amino-ethoxy)-ethoxy]-acet … (peptide)
peptide: B1 peptide with X10Y
modifications: Aib2, αMeF(2F)6, Aib11, αMeL13, Orn16, Aib20, Orn21, K24(Z1), αMeY25, K28(Z1), C-term NH2; Z1=AEEA2-(γ-Glu)-C10_4CP (so in the source)
B4: Y-Aib-EGT-αMeF(2F)-TSD-4Pal-SI-αMeL-LD-Orn-K((2-[2-(2-Amino-ethoxy)-ethoxy]-acetyl)2-(γ-Glu)-CO-(CH2)14-CH3)AQ-Aib-EFIK((2-[2-(2-Amino-ethoxy)-ethoxy]-acetyl)2- … (peptide)
peptide: B1 peptide with X11S, Q17K, X21E, K28E
modifications: Aib2, αMeF(2F)6, 4Pal10, αMeL13, Orn16, K17(Z1), Aib20, K24(Z1), αMeY25, C-term NH2; Z1=AEEA2-(γ-Glu)-CO-(CH2)14-CH3
B5: Y-Aib-EGT-αMeF(2F)-TSD-4Pal-Aib-I-αMeL-LD-Orn-QAQ-Aib-Orn-FIK((2-[2-(2-Amino-ethoxy)-ethoxy]-acetyl)-(γ-Glu)-(2-[2-(2-Amino-ethoxy)-ethoxy]-acetyl)-(γ-Glu)-CO-( … (peptide)
peptide: B1 peptide
modifications: Aib2, αMeF(2F)6, 4Pal10, Aib11, αMeL13, Orn16, Aib20, Orn21, K24(Z1), αMeY25, K28(Z1), C-term NH2; Z1=AEEA-(γ-Glu)-AEEA-(γ-Glu)-CO-(CH2)12-CO2H
B6: Y-Aib-EGT-αMeF(2F)-TSD-4Pal-Aib-I-αMeL-LD-Orn-QAQ-Aib-Orn-FIK((2-[2-(2-Amino-ethoxy)-ethoxy]-acetyl)-(γ-Glu)3-CO-(CH2)12-CO2H)-αMeY-LIK((2-[2-(2-Amino-ethoxy)-e … (peptide)
peptide: B1 peptide
modifications: Aib2, αMeF(2F)6, 4Pal10, Aib11, αMeL13, Orn16, Aib20, Orn21, K24(Z1), αMeY25, K28(Z1), C-term NH2; Z1=AEEA-(γ-Glu)3-CO-(CH2)12-CO2H
B7: Y-Aib-EGT-αMeF(2F)-TSD-hY-SI-αMeL-LD-Orn-QAQ-Aib-Orn-FIK((2-[2-(2-Amino-ethoxy)-ethoxy]-acetyl)2-(γ-Glu)-CO-(CH2)12-CO2H)-αMeY-LIK((2-[2-(2-Amino-ethoxy)-ethoxy … (peptide)
peptide: B1 peptide with X11S
modifications: Aib2, αMeF(2F)6, hY10 (so in the source), αMeL13, Orn16, Aib20, Orn21, K24(Z1), αMeY25, K28(Z1), C-term NH2; Z1=AEEA2-(γ-Glu)-CO-(CH2)12-CO2H
B8: Y-Aib-EGT-αMeF(2F)-TSD-4Pal-Aib-I-αMeL-LD-Orn-QAQ-Aib-Orn-FIK((γ-Glu)-(2-[2-(2-Amino-ethoxy)-ethoxy]-acetyl)2-(γ-Glu)-CO-(CH2)12-CO2H)-αMeY-LIK((γ-Glu)-(2-[2-(2 … (peptide)
peptide: B1 peptide
modifications: Aib2, αMeF(2F)6, 4Pal10, Aib11, αMeL13, Orn16, Aib20, Orn21, K24(Z1), αMeY25, K28(Z1), C-term NH2; Z1=(γ-Glu)-AEEA2-(γ-Glu)-CO-(CH2)12-CO2H
B9: Y-Aib-EGT-αMeF(2F)-TSDY-Aib-I-αMeL-LD-Orn-QAQ-Aib-Orn-FIK((2-[2-(2-Amino-ethoxy)-ethoxy]-acetyl)2-(γ-Glu)2-CO-(CH2)12-CO2H)-αMeY-LIK((2-[2-(2-Amino-ethoxy)-etho … (peptide)
peptide: B1 peptide with X10Y
modifications: Aib2, αMeF(2F)6, Aib11, αMeL13, Orn16, Aib20, Orn21, K24(Z1), αMeY25, K28(Z1), C-term NH2; Z1=AEEA2-(γ-Glu)2-CO-(CH2)12-CO2H
B10: Y-Aib-EGT-αMeF(2F)-TSD-4Pal-Aib-I-αMeL-LD-Orn-QAQ-Aib-Orn-FIK((2-[2-(2-Amino-ethoxy)-ethoxy]-acetyl)-(γ-Glu)3-(10-(4-carboxyphenoxy)decanoyl))-αMeY-LIK((2-[2-(2 … (peptide)
peptide: B1 peptide
modifications: Aib2, αMeF(2F)6, 4Pal10, Aib11, αMeL13, Orn16, Aib20, Orn21, K24(Z1), αMeY25, K28(Z1), C-term NH2; Z1=AEEA-(γ-Glu)3-(10-(4-carboxyphenoxy)decanoyl)
B11: Y-Aib-EGT-αMeF(2F)-TSD-4Pal-Aib-I-αMeL-LD-Orn-QAQ-Aib-4Pal-FIK((2-[2-(2-Amino-ethoxy)-ethoxy]-acetyl)2-(γ-Glu)-(10-(4-carboxyphenoxy)decanoyl))-αMeY-LIK((2-[2-( … (peptide)
peptide: B1 peptide
modifications: Aib2, αMeF(2F)6, 4Pal10, Aib11, αMeL13, Orn16, Aib20, 4Pal21, K24(Z1), αMeY25, K28(Z1), C-term NH2; Z1=AEEA2-(γ-Glu)-(10-(4-carboxyphenoxy)decanoyl)
B12: Y-Aib-EGT-αMeF(2F)-TSD-4Pal-SI-αMeL-LD-Orn-K((2-[2-(2-Amino-ethoxy)-ethoxy]-acetyl)-(γ-Glu)-(10-(4-carboxyphenoxy)decanoyl))AQ-Aib-EFI-(D-Glu)-αMeY-LIEGGK((2-[2 … (peptide)
peptide: YXEGTXTSDXSIXLDXKAQXEFIXXLIEGGKSSGAPPPS
modifications: Aib2, αMeF(2F)6, 4Pal10, αMeL13, Orn16, K17(Z1), Aib20, D-Glu24, αMeY25, K31(Z1), C-term NH2; Z1=AEEA-(γ-Glu)-(10-(4-carboxyphenoxy)decanoyl)
B13: Y-Aib-EGT-αMeF(2F)-TSDK((2-[2-(2-Amino-ethoxy)-ethoxy]-acetyl)2-(γ-Glu)-CO-(CH2)14-CH3)SI-αMeL-LD-Orn-K((2-[2-(2-Amino-ethoxy)-ethoxy]-acetyl)2-(γ-Glu)-CO-(CH2) … (peptide)
peptide: B12 peptide with X10K, K31P
modifications: Aib2, αMeF(2F)6, K10(Z1), αMeL13, Orn16, K17(Z1), Aib20, D-Glu24, αMeY25, C-term NH2; Z1=AEEA2-(γ-Glu)-CO-(CH2)14-CH3
B14: Y-Aib-EGT-αMeF(2F)-TSD-4Pal-SI-αMeL-LD-Orn-K((2-[2-(2-Amino-ethoxy)-ethoxy]-acetyl)-(γ-Glu)-CO-(CH2)14-CH3)AQ-Aib-EFI-(D-Glu)-αMeY-LIEGGK((2-[2-(2-Amino-ethoxy) … (peptide)
peptide: B12 peptide
modifications: Aib2, αMeF(2F)6, 4Pal10, αMeL13, Orn16, K17(Z1), Aib20, D-Glu24, αMeY25, K31(Z1), C-term NH2; Z1=AEEA-(γ-Glu)-CO-(CH2)14-CH3
B15: Y-Aib-EGT-αMeF(2F)-TSD-4Pal-SI-αMeL-LD-Orn-K((2-[2-(2-Amino-ethoxy)-ethoxy]-acetyl)-(γ-Glu)-CO-(CH2)10-CH3)AQ-Aib-EFI-(D-Glu)-αMeY-LIEGGK((2-[2-(2-Amino-ethoxy) … (peptide)
peptide: B12 peptide
modifications: Aib2, αMeF(2F)6, 4Pal10, αMeL13, Orn16, K17(Z1), Aib20, D-Glu24, αMeY25, K31(Z1), C-term NH2; Z1=AEEA-(γ-Glu)-CO-(CH2)10-CH3
B16: Y-Aib-EGT-αMeF(2F)-TSD-4Pal-SI-αMeL-LD-Orn-K((2-[2-(2-Amino-ethoxy)-ethoxy]-acetyl)-(γ-Glu)-CO-(CH2)12-CO2H)AQ-Aib-EFI-(D-Glu)-αMeY-LIEGGK((2-[2-(2-Amino-ethoxy … (peptide)
peptide: B12 peptide
modifications: Aib2, αMeF(2F)6, 4Pal10, αMeL13, Orn16, K17(Z1), Aib20, D-Glu24, αMeY25, K31(Z1), C-term NH2; Z1=AEEA-(γ-Glu)-CO-(CH2)12-CO2H
B17: Y-Aib-EGT-αMeF(2F)-TSD-4Pal-SI-αMeL-LD-Orn-K((2-[2-(2-Amino-ethoxy)-ethoxy]-acetyl)2-(γ-Glu)-CO-(CH2)14-CH3)AQ-Aib-EFI-(D-Glu)-αMeY-LIEGGPSSGAPPPSK((2-[2-(2-Ami … (peptide)
peptide: YXEGTXTSDXSIXLDXKAQXEFIXXLIEGGPSSGAPPPSK
modifications: Aib2, αMeF(2F)6, 4Pal10, αMeL13, Orn16, K17(Z1), Aib20, D-Glu24, αMeY25, K40(Z1), C-term NH2; Z1=AEEA2-(γ-Glu)-CO-(CH2)14-CH3

Target: T2, human glucagon receptor (human, UniProt P47871 26-477)
T2 construct: whole, on cells; also called hGCGR; hGcgR
T2 sequence (P47871 26-477): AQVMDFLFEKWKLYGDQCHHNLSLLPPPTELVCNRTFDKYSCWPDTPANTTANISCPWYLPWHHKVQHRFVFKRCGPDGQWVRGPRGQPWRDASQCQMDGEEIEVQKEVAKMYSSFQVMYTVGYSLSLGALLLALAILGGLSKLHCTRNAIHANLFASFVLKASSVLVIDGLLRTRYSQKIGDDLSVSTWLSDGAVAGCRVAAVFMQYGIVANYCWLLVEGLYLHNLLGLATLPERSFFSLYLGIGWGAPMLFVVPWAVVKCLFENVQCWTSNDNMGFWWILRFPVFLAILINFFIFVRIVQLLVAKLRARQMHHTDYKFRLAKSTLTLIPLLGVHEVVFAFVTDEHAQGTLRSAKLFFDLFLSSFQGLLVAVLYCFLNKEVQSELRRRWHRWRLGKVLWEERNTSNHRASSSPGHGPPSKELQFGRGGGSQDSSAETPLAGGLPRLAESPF
Experiment: SPA competition vs [125I]-Gcg, hGcgR membranes

Binder | Ki [nM]
B1 | 121
B2 | 151
B3 | 28.6
B4 | 0.596
B5 | 305
B6 | 115
B7 | 94.4
B8 | 273
B9 | 88.5
B10 | 73.3
B11 | 70.1
Y[Aib]EGT[αMePhe(2-F)]TSD[Nle]SI[αMeL]LD[Orn]QAQ[Aib][Orn]FIK([AEEA-AEEA-γGlu-C14 diacid])[αMeY]LIK([AEEA-AEEA-γGlu-C14 diacid])GGPSSGAPPPS-NH2 | 37.8
B12 | 213
B13 | 0.923
B14 | 0.987
B15 | 17.6
B16 | 660
B17 | 0.283

Target: T3, human GLP-1 receptor (human, UniProt P43220 24-463)
T3 construct: whole, on cells; also called hGLP-1R; human glucagon-like peptide-1 receptor
Experiment: SPA competition vs [125I]-GLP-1, hGLP-1R membranes
Summary of the method: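 Competition binding in 25 mM HEPES pH 7.4, 2.5 mM CaCl₂, 1 mM MgCl₂, 0.1% bacitracin, 0.003% TWEEN-20, EDTA-free protease inhibitors. IC₅₀ from four-parameter nonlinear fit; Kᵢ given as geometric mean ± SEM, n = independent replicates on different days.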

Binder | Ki [nM]
B1 | 0.3
B2 | 0.263
B3 | 0.233
B4 | 0.301
B5 | 0.268
B6 | 0.299
B7 | 0.182
B8 | 0.254
B9 | 0.307
B10 | 0.217
B11 | 0.25
Y[Aib]EGT[αMePhe(2-F)]TSD[Nle]SI[αMeL]LD[Orn]QAQ[Aib][Orn]FIK([AEEA-AEEA-γGlu-C14 diacid])[αMeY]LIK([AEEA-AEEA-γGlu-C14 diacid])GGPSSGAPPPS-NH2 | 0.27
B12 | 0.638
B13 | 0.412
B14 | 0.691
B15 | 0.286
B16 | 1.06
B17 | 0.483

Target: T1, human GIP receptor
Experiment: SPA competition vs [125I]-GIP, hGIPR membranes

Binder | Ki [nM]
B1 | 0.0548
B2 | 0.0236
B3 | 0.0264
B4 | 0.0217
B5 | 0.0296
B6 | 0.046
B7 | 0.0301
B8 | 0.0277
B9 | 0.0368
B10 | 0.0714
B11 | 0.0345
Y[Aib]EGT[αMePhe(2-F)]TSD[Nle]SI[αMeL]LD[Orn]QAQ[Aib][Orn]FIK([AEEA-AEEA-γGlu-C14 diacid])[αMeY]LIK([AEEA-AEEA-γGlu-C14 diacid])GGPSSGAPPPS-NH2 | 0.0288
B12 | 0.0575
B13 | 0.0505
B14 | 0.0575
B15 | 0.036
B16 | 0.0508
B17 | 0.0293
